From patent publication US10689628B2, “Method of making variant LovD polypeptides” (THE REGENTS OF THE UNIVERSITY OF CALIFORNIA, priority 2009, dated 2020)
“Also recorded” adds a separate entry of the source.

Key:
[1] = target: T1, LovD (Aspergillus terreus, UniProt Q9Y7D1); details: cited from earlier work; for substrate quality for LovD (in words): WO 2007/139871, acyl-CoA substrates; for apparent kcat: WO 2007/139871, acyl donor with LovD and monacolin J; for conversion / acylation of monacolin J with acyl-CoA: WO 2007/139871: 1 mM monacolin J, 4 mM acyl-CoA, 10 uM LovD, 10 hours
T1 construct: made in house; host or cells: E. coli BL21(DE3)/pAW31

[2] = Native gel / SDS-PAGE of LovD proteins (oligomer, insoluble protein); type: physicochemical; details: for native gel: oligomer / monomer / stability (in words): DTT fixed at 2 mM
Procedure: FIG. 2. (a) SDS-PAGE gel LovD protein (WT) from E. coli BL21(DE3)/pAW31; (b) native gel of LovD protein (WT) and A1-A8 respectively, DTT was fixed at 2 mM for all samples.
LovD protein was purified to homogeneity by one step Ni-NTA column (FIG. 2a). […] The disulfide bonds between the proteins are spurious for protein crystallization because the monomer and oligomer are different species (see, e.g. Nemoto et al., 2006; J Appl Physiol 100(5):1688-91). One of our purposes was to remove the intermolecular disulfide bonds. By replacing the cysteine residues with alanine, we hope the resultant LovD mutant can keep the acyl-transferase activity while breaking the intermolecular disulfide bonds. […] We reasoned that the solubility of LovD may be changed when the intermolecular disulfide bonds between wild type LovD was eliminated (see, e.g. Lindberg et al., M. 2004; Proc Natl Acad Sci USA 101(45):15893-8).
We ran the native gel of all the mutant proteins together with the wild type LovD protein (FIG. 2b).

[3] = tested on: MJ acid and DMB-S-MMP; assay: Kinetic assay of LovD wild type and mutants towards MJ acid and DMB-S-MMP; type: biochemical
Procedure: Dimethyl sulfoxide (DMSO) was added to a final concentration of 10% to facilitate the solubilization of DMB-S-MMP. To compare the turnover rate of all mutants and the wild type protein, the MJ acid concentration was set at 1 mM and the DMB-S-MMP was set at 2 mM, the protein concentration was fixed at 10 uM, after the reaction was performed at room temperature for 2 hours, the reaction was quenched by adding EA/2% TFA. The organic phase was dried and redissolved in ACN for HPLC analysis.
The concentration of DMB-S-MMP was fixed at 2 mM and MJ acid concentration was varied from 0.25 mM to 2.0 mM. […] For the rest LovD mutant proteins, we only checked the conversion of one time point.
To obtain KM values for MJA and kcat, the DMB-SMMP concentration was fixed at 2 mM, while the concentration of MJA was varied from 0.25 to 5 mM. To obtain KM values for DMB-SMMP and kcat, the MJA concentration was fixed at 2 mM, while the concentration of DMB-SMMP was varied from 0.5 to 5 mM. Dimethyl sulfoxide (DMSO) was added to a final concentration of 10% to facilitate the solubilization of DMB-SMMP. At different time points of the kinetic assay, an aliquot of the reaction mixture was removed, quenched with 1% TFA and extracted with EA containing 1% acetic acid. The organic phase was separated, dried, resolubilized by acetonitrile (ACN) and analyzed by a Beckman Gold HPLC using a reverse phase C18 column (Alltech Apollo 5μ, 150 mm×4.6 mm) and a linear gradient: 60% ACN in water (0.1% trifluoroacetic acid (TFA)) to 95% ACN in water (0.1% TFA) for 10 min, 1 mL/min. Conversion of MJA to SVA was measured by integration of the peaks at 238 nm.

[4] = tested on: E. coli YT2; assay: Whole-cell biocatalysis, MJ acid and DMB-S-MMP to simvastatin acid (Example 1)
Procedure: Whole cell biocatalytic activities based on the conversion from MJ acid and DMB-S-MMP (gray column) and soluble protein expression level comparison between the wild type LovD and the mutants (black column). For the whole cell activity, the LB culture was concentrated 10 times to mimic high density fermentation, 15 mM MJ acid and 18 mM DMB-S-MMP were used to compare the conversion. The conversion based on 8 hours was used to compare the whole cell activity between the wild type LovD and the mutants. The wild type LovD conversion was normalized to 100%, the data points are averaged values of two runs.
The LovD wild type and all mutants were cultured side-by-side for comparison. A single colony of the freshly transformed strains was used to inoculate a 5 ml LB culture supplemented with 35 mg/L kan and grown overnight at 37° C. The next morning, 100 μl of the overnight culture (0.2%) was inoculated into 50 ml LB medium with Kan. When OD600 reached 0.4˜0.6, 0.1 mM IPTG was added to the culture and expression of LovD was performed at 20° C. for 16 hrs. To mimic the high density fermentation conditions, the cells were concentrated 10-fold before addition of substrates. A 14 ml aliquot of the culture was collected by centrifugation (4° C., 4000 g, 10 min). The cell pellet was gently resuspended in 1330 ml of the supernatant, followed by addition of 70 ml of a MJ acid stock solution (300 mM in water) to make final concentration 15 mM. The concentrated culture was then resuspended and separated into seven 200 μl samples, 1 μl of pure DMB-S-MMP was added to each sample (final concentration ˜20 mM). The cultures were then shaken at 300 rpm at room temperature. At each time point, a total extraction was performed by adding 10 μl of 20% SDS to completely lyse the cells, followed by liquid—liquid extraction with 500 μl EA/2% TFA. The organic phase was removed, evaporated, and redissolved in 500 μl ACN for HPLC analysis.
We then tested the in vivo activity of the nine mutants in comparison to the wild type LovD. Both the mutants and the wild type LovD strains were grown in LB media, expressed and concentrated 10 times to mimic the high density fermentation after 16 hours expression at 20° C. Both MJ acid and DMB-S-MMP were added to final 15 mM and 18 mM respectively to start the reaction. At 8 hours, 100 μl sample culture was taken out to check the total conversion from MJ acid to simvastatin acid.

[5] = DMB-S-MMP fixed at 2 mM, MJ acid 0.25 mM to 2.0 mM

CC(=O)CC(=O)SCCNC(=O)CCNC(=O)[C@H](O)C(C)(C)COP(=O)(O)OP(=O)(O)OC[C@H]1O[C@@H](n2cnc3c(N)ncnc32)[C@H](O)[C@@H]1OP(=O)(O)O [Acetoacetyl-CoA]
substrate quality for LovD (in words) [1]: excellent substrates

CCCC(=O)SCCNC(C)=O [SNAC, butyryl-SNAC]
apparent kcat [1]: 0.0015 s⁻¹

CC(C)(COP(=O)(O)OP(=O)(O)OC[C@H]1O[C@@H](n2cnc3c(N)ncnc32)[C@H](O)[C@@H]1OP(=O)(O)O)[C@@H](O)C(=O)NCCC(=O)NCCSC(=O)c1ccccc1 [benzoyl-CoA]
apparent kcat [1]: 0.00267 s⁻¹
conversion / acylation of monacolin J with acyl-CoA [1]: ~70%

CCCC(=O)SCCNC(=O)CCNC(=O)[C@H](O)C(C)(C)COP(=O)(O)OP(=O)(O)OC[C@H]1O[C@@H](n2cnc3c(N)ncnc32)[C@H](O)[C@@H]1OP(=O)(O)O [butyryl-CoA]
substrate quality for LovD (in words) [1]: optimal alkylacyl-CoA substrate

C/C=C/C(=O)SCCNC(=O)CCNC(=O)[C@H](O)C(C)(C)COP(=O)(O)OP(=O)(O)OC[C@H]1O[C@@H](n2cnc3c(N)ncnc32)[C@H](O)[C@@H]1OP(=O)(O)O [crotonyl-CoA]
conversion / acylation of monacolin J with acyl-CoA [1]: 6%

CC(C)(COP(=O)(O)OP(=O)(O)OC[C@H]1O[C@@H](n2cnc3c(N)ncnc32)[C@H](O)[C@@H]1OP(=O)(O)O)[C@@H](O)C(=O)NCCC(=O)NCCSC(=O)CC(=O)O [malonyl-CoA]
substrate quality for LovD (in words) [1]: inactive

CCCCCCCCCCCCCCCC(=O)SCCNC(=O)CCNC(=O)[C@H](O)C(C)(C)COP(=O)(O)OP(=O)(O)OC[C@H]1O[C@@H](n2cnc3c(N)ncnc32)[C@H](O)[C@@H]1OP(=O)(O)O [palmitoyl-CoA]
substrate quality for LovD (in words) [1]: inactive

CC[C@H](C)C(=O)SCCNC(C)=O [α-S-methylbutyryl-SNAC]
apparent kcat [1]: ~0.00067 s⁻¹

CC(O)CC(=O)SCCNC(=O)CCNC(=O)[C@H](O)C(C)(C)COP(=O)(O)OP(=O)(O)OC[C@H]1O[C@@H](n2cnc3c(N)ncnc32)[C@H](O)[C@@H]1OP(=O)(O)O (stereo partly drawn) [β-hydroxylbutyryl-CoA]
substrate quality for LovD (in words) [1]: excellent substrates

B1: wild type LovD: A. terreus LovD acyltransferase polypeptide, SEQ ID NO: 1 (protein, listed as Aspergillus terreus)
chain: MGSIIDAAAAADPVVLMETAFRKAVKSRQIPGAVIMARDCSGNLNYTRCFGARTVRRDECNQLPPLQVDTPCRLASATKLLTTIMALQCMERGLVDLDETVDRLLPDLSAMPVLEGFDDAGNARLRERRGKITLRHLLTHTSGLSYVFLHPLLREYMAQGHLQSAEKFGIQSRLAPPAVNDPGAEWIYGANLDWAGKLVERATGLDLEQYLQENICAPLGITDMTFKLQQRPDMLARRADQTHRNSADGRLRYDDSVYFRADGEECFGGQGVFSGPGSYMKVLHSLLKRDGLLLQPQTVDLMFQPALEPRLEEQMNQHMDASPHINYGGPMPMVLRRSFGLGGIIALEDLDGENWRRKGSLTFGGGPNIVWQIDPKAGLCTLAFFQLEPWNDPVCRDLTRTFEHAIYAQYQQG
fraction of LovD protein forming oligomer ([2]; native gel, even at high DTT concentration): ~20%
fraction of expressed LovD protein insoluble ([2]; overexpressed in E. coli): more than 50%
Km [3, 5]: 640 µM
kcat [3, 5]: 0.62 min⁻¹
kcat ([3]; FIG. 1 legend, MJ acid and DMB-S-MMP to simvastatin): 0.6 min'
time to convert 15 mM MJ acid into simvastatin acid ([4]; whole cell, culture concentrated 10 times, 15 mM MJ acid, 18 mM DMB-S-MMP): 12 h

B2: A7: LovD C266A mutant (protein, UniProt Q9Y7D1 1-413, looked up, variant C266A)
Monacolin J acid …: MGSIIDAAAAADPVVLMETAFRKAVKSRQIPGAVIMARDCSGNLNYTRCFGARTVRRDECNQLPPLQVDTPCRLASATKLLTTIMALQCMERGLVDLDETVDRLLPDLSAMPVLEGFDDAGNARLRERRGKITLRHLLTHTSGLSYVFLHPLLREYMAQGHLQSAEKFGIQSRLAPPAVNDPGAEWIYGANLDWAGKLVERATGLDLEQYLQENICAPLGITDMTFKLQQRPDMLARRADQTHRNSADGRLRYDDSVYFRADGEEAFGGQGVFSGPGSYMKVLHSLLKRDGLLLQPQTVDLMFQPALEPRLEEQMNQHMDASPHINYGGPMPMVLRRSFGLGGIIALEDLDGENWRRKGSLTFGGGPNIVWQIDPKAGLCTLAFFQLEPWNDPVCRDLTRTFEHAIYAQYQQG
native gel: oligomer / monomer / stability (in words) [2]: not very stable; also recorded: less proteins

B3: A9: LovD C395A mutant (protein, UniProt Q9Y7D1 1-413, looked up, variant C395A)
Monacolin J acid …: MGSIIDAAAAADPVVLMETAFRKAVKSRQIPGAVIMARDCSGNLNYTRCFGARTVRRDECNQLPPLQVDTPCRLASATKLLTTIMALQCMERGLVDLDETVDRLLPDLSAMPVLEGFDDAGNARLRERRGKITLRHLLTHTSGLSYVFLHPLLREYMAQGHLQSAEKFGIQSRLAPPAVNDPGAEWIYGANLDWAGKLVERATGLDLEQYLQENICAPLGITDMTFKLQQRPDMLARRADQTHRNSADGRLRYDDSVYFRADGEECFGGQGVFSGPGSYMKVLHSLLKRDGLLLQPQTVDLMFQPALEPRLEEQMNQHMDASPHINYGGPMPMVLRRSFGLGGIIALEDLDGENWRRKGSLTFGGGPNIVWQIDPKAGLCTLAFFQLEPWNDPVARDLTRTFEHAIYAQYQQG
native gel: oligomer / monomer / stability (in words) [2]: no soluble proteins at all
whole cell activity compared to the wild type (in words) ([4]; 8 hours conversion, alanine scanning mutants): no activity

B4: A8: LovD C380A mutant (protein, UniProt Q9Y7D1 1-413, looked up, variant C380A)
Monacolin J acid …: MGSIIDAAAAADPVVLMETAFRKAVKSRQIPGAVIMARDCSGNLNYTRCFGARTVRRDECNQLPPLQVDTPCRLASATKLLTTIMALQCMERGLVDLDETVDRLLPDLSAMPVLEGFDDAGNARLRERRGKITLRHLLTHTSGLSYVFLHPLLREYMAQGHLQSAEKFGIQSRLAPPAVNDPGAEWIYGANLDWAGKLVERATGLDLEQYLQENICAPLGITDMTFKLQQRPDMLARRADQTHRNSADGRLRYDDSVYFRADGEECFGGQGVFSGPGSYMKVLHSLLKRDGLLLQPQTVDLMFQPALEPRLEEQMNQHMDASPHINYGGPMPMVLRRSFGLGGIIALEDLDGENWRRKGSLTFGGGPNIVWQIDPKAGLATLAFFQLEPWNDPVCRDLTRTFEHAIYAQYQQG
native gel: oligomer / monomer / stability (in words) [2]: very similar to WT

B5: A4: LovD C72A mutant (protein, UniProt Q9Y7D1 1-413, looked up, variant C72A)
Monacolin J acid …: MGSIIDAAAAADPVVLMETAFRKAVKSRQIPGAVIMARDCSGNLNYTRCFGARTVRRDECNQLPPLQVDTPARLASATKLLTTIMALQCMERGLVDLDETVDRLLPDLSAMPVLEGFDDAGNARLRERRGKITLRHLLTHTSGLSYVFLHPLLREYMAQGHLQSAEKFGIQSRLAPPAVNDPGAEWIYGANLDWAGKLVERATGLDLEQYLQENICAPLGITDMTFKLQQRPDMLARRADQTHRNSADGRLRYDDSVYFRADGEECFGGQGVFSGPGSYMKVLHSLLKRDGLLLQPQTVDLMFQPALEPRLEEQMNQHMDASPHINYGGPMPMVLRRSFGLGGIIALEDLDGENWRRKGSLTFGGGPNIVWQIDPKAGLCTLAFFQLEPWNDPVCRDLTRTFEHAIYAQYQQG
native gel: oligomer / monomer / stability (in words) [2]: not very stable; also recorded: less proteins

B6: A6: LovD C216A mutant (protein, UniProt Q9Y7D1 1-413, looked up, variant C216A)
Monacolin J acid …: MGSIIDAAAAADPVVLMETAFRKAVKSRQIPGAVIMARDCSGNLNYTRCFGARTVRRDECNQLPPLQVDTPCRLASATKLLTTIMALQCMERGLVDLDETVDRLLPDLSAMPVLEGFDDAGNARLRERRGKITLRHLLTHTSGLSYVFLHPLLREYMAQGHLQSAEKFGIQSRLAPPAVNDPGAEWIYGANLDWAGKLVERATGLDLEQYLQENIAAPLGITDMTFKLQQRPDMLARRADQTHRNSADGRLRYDDSVYFRADGEECFGGQGVFSGPGSYMKVLHSLLKRDGLLLQPQTVDLMFQPALEPRLEEQMNQHMDASPHINYGGPMPMVLRRSFGLGGIIALEDLDGENWRRKGSLTFGGGPNIVWQIDPKAGLCTLAFFQLEPWNDPVCRDLTRTFEHAIYAQYQQG
native gel: oligomer / monomer / stability (in words) [2]: very similar to WT

B7: A5: LovD C89A mutant (protein, UniProt Q9Y7D1 1-413, looked up, variant C89A)
Monacolin J acid …: MGSIIDAAAAADPVVLMETAFRKAVKSRQIPGAVIMARDCSGNLNYTRCFGARTVRRDECNQLPPLQVDTPCRLASATKLLTTIMALQAMERGLVDLDETVDRLLPDLSAMPVLEGFDDAGNARLRERRGKITLRHLLTHTSGLSYVFLHPLLREYMAQGHLQSAEKFGIQSRLAPPAVNDPGAEWIYGANLDWAGKLVERATGLDLEQYLQENICAPLGITDMTFKLQQRPDMLARRADQTHRNSADGRLRYDDSVYFRADGEECFGGQGVFSGPGSYMKVLHSLLKRDGLLLQPQTVDLMFQPALEPRLEEQMNQHMDASPHINYGGPMPMVLRRSFGLGGIIALEDLDGENWRRKGSLTFGGGPNIVWQIDPKAGLCTLAFFQLEPWNDPVCRDLTRTFEHAIYAQYQQG
native gel: oligomer / monomer / stability (in words) [2]: not very stable; also recorded: less proteins

B8: A2: LovD C49A mutant (protein, UniProt Q9Y7D1 1-413, looked up, variant C49A)
Monacolin J acid …: MGSIIDAAAAADPVVLMETAFRKAVKSRQIPGAVIMARDCSGNLNYTRAFGARTVRRDECNQLPPLQVDTPCRLASATKLLTTIMALQCMERGLVDLDETVDRLLPDLSAMPVLEGFDDAGNARLRERRGKITLRHLLTHTSGLSYVFLHPLLREYMAQGHLQSAEKFGIQSRLAPPAVNDPGAEWIYGANLDWAGKLVERATGLDLEQYLQENICAPLGITDMTFKLQQRPDMLARRADQTHRNSADGRLRYDDSVYFRADGEECFGGQGVFSGPGSYMKVLHSLLKRDGLLLQPQTVDLMFQPALEPRLEEQMNQHMDASPHINYGGPMPMVLRRSFGLGGIIALEDLDGENWRRKGSLTFGGGPNIVWQIDPKAGLCTLAFFQLEPWNDPVCRDLTRTFEHAIYAQYQQG
native gel: oligomer / monomer / stability (in words) [2]: very similar to WT
